Measurements: US20220281976A1 (Alector, published 2022)
Changes are numbered by the printed parent chain.

What was measured:
human CD33 [1] = target: T1, human CD33 (human, UniProt P20138 18-364); assay: cell-based or functional assay
[2] = target: T2, mouse CD33 Fc fusion protein (mouse, UniProt Q63994 18-240, limits assumed); assay: ForteBio BLI or MSD-SET
T2 construct: also called mCD33-Fc
T2 sequence: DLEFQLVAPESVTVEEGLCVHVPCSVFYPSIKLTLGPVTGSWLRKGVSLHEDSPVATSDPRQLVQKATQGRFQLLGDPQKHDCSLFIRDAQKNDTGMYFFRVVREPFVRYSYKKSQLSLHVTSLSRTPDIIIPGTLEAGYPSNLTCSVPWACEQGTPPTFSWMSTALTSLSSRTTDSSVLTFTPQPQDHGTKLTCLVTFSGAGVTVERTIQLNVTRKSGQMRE

[3] = target: T3, human CD33 Fc fusion protein (human, UniProt P20138 18-259); assay: ForteBio BLI or MSD-SET, IgG, avid;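 also: Anti-CD33 IgG affinity by BLI, IgG captured on AHQ sensors with antigen in solution and a one-to-one kinetic fit, or by MSD solution equilibrium titration with quadratic fit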
T3 construct: also called hCD33-Fc; human CD33/Fc chimera (R&D Systems)
T3 sequence (P20138 18-259 limits assumed): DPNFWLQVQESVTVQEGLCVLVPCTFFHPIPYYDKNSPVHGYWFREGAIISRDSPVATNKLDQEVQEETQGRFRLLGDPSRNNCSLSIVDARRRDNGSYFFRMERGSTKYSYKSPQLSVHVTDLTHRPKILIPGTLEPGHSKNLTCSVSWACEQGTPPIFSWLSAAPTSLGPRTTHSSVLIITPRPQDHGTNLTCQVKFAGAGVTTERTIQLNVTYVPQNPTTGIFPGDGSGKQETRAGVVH
Experimental: The binding affinity of each anti-CD33 antibody was determined by measuring their KD by ForteBio or MSD-SET. […] Briefly, ForteBio affinity measurements were performed by loading IgGs on-line onto AHQ sensors. Sensors were equilibrated off-line in assay buffer for 30 min and then monitored on-line for 60 seconds for baseline establishment. Sensors with loaded IgGs were exposed to 100 nM antigen for 5 minutes, then transferred to assay buffer for 5 min for off-rate measurement. Kinetics were analyzed using the 1:1 binding model.
Solution equilibrium titrations (SET) were performed in PBS+0.1% IgG-Free BSA (PBSF) with antigen held constant at 50 pM and incubated with 3-to 5-fold serial dilutions of antibody starting at 10 nM. Antibodies (20 nM in PBS) were coated onto standard bind MSD-ECL plates overnight at 4° C. or at room temperature for 30 min. Plates were then blocked for 30 min with shaking at 700 rpm, followed by three washes with wash buffer (PBSF+0.05% Tween 20). SET samples were applied and incubated on the plates for 150s with shaking at 700 rpm followed by one wash. Antigen captured on a plate was detected with 250 ng/mL sulfotag-labeled streptavidin in PBSF by incubation on the plate for 3 min. The plates were washed three times with wash buffer and then read on the MSD Sector Imager 2400 instrument using 1× Read Buffer T with surfactant. The percent free antigen was plotted as a function of titrated antibody in Prism and fit to a quadratic equation to extract the KD. To improve throughput, liquid handling robots were used throughout MSD-SET experiments, including SET sample preparation.

human CD33 [4] = target: T1, human CD33; assay: flow cytometry, human primary T cells;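 also: binding of anti-CD33 antibodies at 10 ug/ml to human primary T cells, 1 h on ice, detected with PE-labelled secondary antibody, read as flow cytometry MFI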
human CD33 [5] = target: T1, human CD33; assay: flow cytometry, human primary monocytes; design: reference not given here;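 also: binding of anti-CD33 antibodies at 10 ug/ml to human primary monocytes, 1 h on ice, detected by PE-labelled secondary antibody, flow cytometry readout as mean fluorescence intensity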
human CD33 [6] = target: T1, human CD33; assay: flow cytometry, human primary macrophages;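 also: binding of CD33 antibodies at 10 µg/ml to human primary macrophages, 1 h on ice, detected with PE-labelled secondary antibody by flow cytometry, reported as MFI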
Experimental: Initial characterization of CD33 antibodies involved determining their ability to bind CD33 expressed on a CHO cell line, on human primary monocytes, human primary macrophages, human primary dendritic cells, and on human primary T cells. Cells were harvested, plated at 10⁶/ml in a 96 well plate, and incubated in 100 ul PBS containing 2% FBS, 2 mM EDTA and 10 ug/ml Mab and Fc blocking reagent for 1 hour in ice. Cells were washed twice and incubated in 100 ul PBS containing 2% FBS, 2 mM EDTA and 5 ug/ml PE-conjugated secondary antibody for 30 minutes on ice. Cells were washed twice in cold PBS and analyze by flow cytometry on a BD FACS Canto. Data analysis and calculation of MFI values was performed with FlowJo (TreeStar) software version 10.0.7.

human CD33 [7] = target: T1, human CD33; assay: flow cytometry, human primary dendritic cells;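 also: binding of anti-CD33 antibodies (10 ug/ml, 1 h on ice) to human primary dendritic cells, detected with a PE-labelled secondary antibody, reported as flow cytometry MFI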
[8] = target: T4, human monomeric His tagged CD33 protein (human, UniProt P20138 18-259); assay: ForteBio BLI or MSD-SET, IgG, monomeric antigen;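 also: BLI: antibodies captured on AHQ sensors, 100 nM antigen association 5 min, dissociation 5 min, 1:1 fit. MSD-SET: antigen fixed at 50 pM, antibody titrated, quadratic fit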
T4 construct: also called hCD33-His
T4 sequence (P20138 18-259 limits assumed): as above

[9] = target: T3, human CD33 Fc fusion protein; assay: RBC adhesion to plate-bound CD33-Fc; antibody 0.5 ug/ml;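 also: Plate-coated CD33-Fc preincubated 1 h with antibody, then red blood cells added for 1 h at room temperature, adherent cells lysed and quantified via peroxidase activity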
[10] = target: T3, human CD33 Fc fusion protein; assay: RBC adhesion to plate-bound CD33-Fc; antibody 1.0 ug/ml;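 also: red blood cells adhering to plate-coated CD33-Fc after 1 h antibody pretreatment, then 1 h at room temperature, bound cells read as peroxidase activity after lysis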

T1 sequence (P20138 18-364): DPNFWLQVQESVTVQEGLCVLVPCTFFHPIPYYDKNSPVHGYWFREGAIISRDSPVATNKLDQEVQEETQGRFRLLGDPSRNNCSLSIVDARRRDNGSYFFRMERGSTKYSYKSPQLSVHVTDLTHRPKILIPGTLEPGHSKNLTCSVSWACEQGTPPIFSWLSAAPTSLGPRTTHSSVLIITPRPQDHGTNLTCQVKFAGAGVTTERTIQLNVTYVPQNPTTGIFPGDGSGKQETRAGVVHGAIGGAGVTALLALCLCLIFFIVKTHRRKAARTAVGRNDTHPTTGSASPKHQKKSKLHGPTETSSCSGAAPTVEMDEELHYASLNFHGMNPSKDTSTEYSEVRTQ

B1: C-14 (antibody, V domains shown)
VH: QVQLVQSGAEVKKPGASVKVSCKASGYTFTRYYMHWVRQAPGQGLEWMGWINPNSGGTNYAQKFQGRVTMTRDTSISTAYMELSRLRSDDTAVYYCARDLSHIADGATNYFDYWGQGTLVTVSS
VL: DIQMTQSPSSVSASVGDRVTITCRASQGISSWLAWYQQKPGKAPKLLIYAASSLQSGVPSRFSGSGSGTDFTLTISSLQPEDFATYYCQQANYFPTFGGGTKVEIK
notes: human IgG1
With B1 the “Percent CD33 Surface Expression, DC % CD33” value (human CD33 [1]) was 63.1%, the “Percent CD33 Surface Expression, Macrophage % CD33” value (human CD33 [1]) was 97.4% and the “Percent CD33 Surface Expression, Monocyte % CD33” value (human CD33 [1]) was 101%. For the same binder, the binding result [2] was “no binding (tested: 100 nM)”, the Kd [3] was 1.28 nM and the “T cell MFI” value (human CD33 [4]) was 35.7. The “Monocyte MFI” value (human CD33 [5]) was 178, the “Macrophage MFI” value (human CD33 [6]) was 746 and the “DC MFI” value (human CD33 [7]) was 1120. For the same binder, the Kd [8] was 3.49 nM, the “Percent RBC Binding to CD33” value [9] was 76.5% and the “Percent RBC Binding to CD33” value [10] was 80.8%.

B2: C-109 (antibody, V domains shown)
VH: EVQLVESGGGLVQPGGSLRLSCAASGFTFSSYWMSWVRQAPGKGLEWVANIKSDGSEKYYVDSVKGRFTISRDNAKNSLYLQMNSLRAEDTAVYYCARDVGGDYSGSDLASYWGQGTLVTVSS
VL: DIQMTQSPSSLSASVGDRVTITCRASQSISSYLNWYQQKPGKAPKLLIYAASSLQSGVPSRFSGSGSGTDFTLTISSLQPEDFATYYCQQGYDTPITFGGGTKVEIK
notes: human IgG1
For B2, the “Percent CD33 Surface Expression, DC % CD33” value (human CD33 [1]) was 30%, the “Percent CD33 Surface Expression, Macrophage % CD33” value (human CD33 [1]) was 38.9% and the “Percent CD33 Surface Expression, Monocyte % CD33” value (human CD33 [1]) was 31.1%. For the same binder, the binding result [2] was “no binding (tested: 100 nM)”, the Kd [3] was 1.24 nM and the “T cell MFI” value (human CD33 [4]) was 247. For the same binder, the “Monocyte MFI” value (human CD33 [5]) was 867, the “Macrophage MFI” value (human CD33 [6]) was 1240 and the “DC MFI” value (human CD33 [7]) was 164. For the same binder, the Kd [8] was 4.8 nM, the “Percent RBC Binding to CD33” value [9] was 17.6% and the “Percent RBC Binding to CD33” value [10] was 8.3%.

B3: C-9 (antibody, V domains shown)
VH: QLQLQESGPGLVKPSETLSLTCTVSGGSISSSSYYWGWIRQPPGKGLEWIGSIYYSGSTYYNPSLKSRVTISVDTSKNQFSLKLSSVTAADTAVYYCARESGFAGLDPWGQGTLVTVSS
VL: EIVLTQSPGTLSLSPGERATLSCRASQSVSSSFLAWYQQKPGQAPRLLIYGASSRATGIPDRFSGSGSGTDFTLTISRLEPEDFAVYYCQQSEDWPTFGGGTKVEIK
notes: human IgG1
B3 was tested, and the “Percent CD33 Surface Expression, DC % CD33” value (human CD33 [1]) was 26%, the “Percent CD33 Surface Expression, Macrophage % CD33” value (human CD33 [1]) was 63.4% and the “Percent CD33 Surface Expression, Monocyte % CD33” value (human CD33 [1]) was 33.1%. The binding result [2] was “no binding (tested: 100 nM)”, the Kd [3] was 1.09 nM and the “T cell MFI” value (human CD33 [4]) was 307. For the same binder, the “Monocyte MFI” value (human CD33 [5]) was 175, the “Macrophage MFI” value (human CD33 [6]) was 886 and the “DC MFI” value (human CD33 [7]) was 1700. The Kd [8] was 4.17 nM, the “Percent RBC Binding to CD33” value [9] was 27.8% and the “Percent RBC Binding to CD33” value [10] was 20%.

B4: C-12 (antibody, V domains shown)
VH: EVQLLESGGGLVQPGGSLRLSCAASGFTFSNYAMSWVRQAPGKGLEWVSAISGSGGSTYYADSVKGRFTISRDNSKNTLYLQMNSLRAEDTAVYYCARDGSRYSYGLVAYGMDVWGQGTTVTVSS
VL: B3 VL with E93Q, D94L, W95R
notes: human IgG1
For B4, the “Percent CD33 Surface Expression, DC % CD33” value (human CD33 [1]) was 23.6%, the “Percent CD33 Surface Expression, Macrophage % CD33” value (human CD33 [1]) was 68.5% and the “Percent CD33 Surface Expression, Monocyte % CD33” value (human CD33 [1]) was 54.2%. For the same binder, the binding result [2] was “no binding (tested: 100 nM)”, the Kd [3] was 1.84 nM and the “T cell MFI” value (human CD33 [4]) was 182. For the same binder, the “Monocyte MFI” value (human CD33 [5]) was 208, the “Macrophage MFI” value (human CD33 [6]) was 1080 and the “DC MFI” value (human CD33 [7]) was 1120. The Kd [8] was 7.47 nM, the “Percent RBC Binding to CD33” value [9] was 6.34% and the “Percent RBC Binding to CD33” value [10] was 17.8%.

B5: C-3 (antibody, V domains shown)
VH: QVQLVQSGAEVKKPGSSVKVSCKASGGTFSNYAISWVRQAPGQGLEWMGGIIPIFGTANYAQKFQGRVTITADESTSTAYMELSSLRSEDTAVYYCARDTGTYVTGDGMDVWGQGTTVTVSS
VL: EIVMTQSPATLSVSPGERATLSCRASQSVSSNLAWYQQKPGQAPRLLIYGASTRATGIPARFSGSGSGTEFTLTISSLQSEDFAVYYCQQYDVWPITFGGGTKVEIK
notes: human IgG1
For B5, the “Percent CD33 Surface Expression, DC % CD33” value (human CD33 [1]) was 27.9%, the “Percent CD33 Surface Expression, Macrophage % CD33” value (human CD33 [1]) was 63.5% and the “Percent CD33 Surface Expression, Monocyte % CD33” value (human CD33 [1]) was 29.1%. For the same binder, the binding result [2] was “no binding (tested: 100 nM)”, the Kd [3] was 1.11 nM and the “T cell MFI” value (human CD33 [4]) was 262. For the same binder, the “Monocyte MFI” value (human CD33 [5]) was 109, the “Macrophage MFI” value (human CD33 [6]) was 715 and the “DC MFI” value (human CD33 [7]) was 1520. For the same binder, the Kd [8] was 5.76 nM, the “Percent RBC Binding to CD33” value [9] was 14.5% and the “Percent RBC Binding to CD33” value [10] was 9.8%.

B6: C-10 (antibody, V domains shown)
VH: B5 VH
VL: B5 VL with D92V, V93N, W94L
notes: human IgG1
With B6 the “Percent CD33 Surface Expression, DC % CD33” value (human CD33 [1]) was 19.5%, the “Percent CD33 Surface Expression, Macrophage % CD33” value (human CD33 [1]) was 44.5% and the “Percent CD33 Surface Expression, Monocyte % CD33” value (human CD33 [1]) was 31.5%. For the same binder, the binding result [2] was “no binding (tested: 100 nM)”, the Kd [3] was 1.41 nM and the “T cell MFI” value (human CD33 [4]) was 246. For the same binder, the “Monocyte MFI” value (human CD33 [5]) was 107, the “Macrophage MFI” value (human CD33 [6]) was 792 and the “DC MFI” value (human CD33 [7]) was 1230. The Kd [8] was 6.24 nM, the “Percent RBC Binding to CD33” value [9] was 13.8% and the “Percent RBC Binding to CD33” value [10] was 12.3%.

B7: C-11 (antibody, V domains shown)
VH: B5 VH
VL: B5 VL with G50S, D92I, W94L
notes: human IgG1
With B7 the “Percent CD33 Surface Expression, DC % CD33” value (human CD33 [1]) was 23.3%, the “Percent CD33 Surface Expression, Macrophage % CD33” value (human CD33 [1]) was 64.3% and the “Percent CD33 Surface Expression, Monocyte % CD33” value (human CD33 [1]) was 41.3%. The binding result [2] was “no binding (tested: 100 nM)”, the Kd [3] was 1.56 nM and the “T cell MFI” value (human CD33 [4]) was 231. For the same binder, the “Monocyte MFI” value (human CD33 [5]) was 106, the “Macrophage MFI” value (human CD33 [6]) was 795 and the “DC MFI” value (human CD33 [7]) was 1030. For the same binder, the Kd [8] was 7.12 nM, the “Percent RBC Binding to CD33” value [9] was 13% and the “Percent RBC Binding to CD33” value [10] was 7.6%.

B8: C-8 (antibody, V domains shown)
VH: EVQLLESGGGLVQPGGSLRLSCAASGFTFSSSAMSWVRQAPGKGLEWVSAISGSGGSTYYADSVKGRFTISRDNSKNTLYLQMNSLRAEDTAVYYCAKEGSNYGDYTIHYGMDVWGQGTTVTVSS
VL: EIVLTQSPGTLSLSPGERATLSCRASQSVSSSFLAWYQQKPGQAPRLLIYGASSRATGIPDRFSGSGSGTDFTLTISRLEPEDFAVYYCQQVASPPPTFGGGTKVEIK
notes: human IgG1
For B8, the “Percent CD33 Surface Expression, DC % CD33” value (human CD33 [1]) was 42.1%, the “Percent CD33 Surface Expression, Macrophage % CD33” value (human CD33 [1]) was 87.3% and the “Percent CD33 Surface Expression, Monocyte % CD33” value (human CD33 [1]) was 51.9%. For the same binder, the binding result [2] was “no binding (tested: 100 nM)”, the Kd [3] was 1.95 nM and the “T cell MFI” value (human CD33 [4]) was 193. The “Monocyte MFI” value (human CD33 [5]) was 204, the “Macrophage MFI” value (human CD33 [6]) was 980 and the “DC MFI” value (human CD33 [7]) was 1370. For the same binder, the Kd [8] was 6.94 nM, the “Percent RBC Binding to CD33” value [9] was 12.7% and the “Percent RBC Binding to CD33” value [10] was 12.7%.

B9: C-92 (antibody, V domains shown)
VH: EVQLVESGGGLVKPGGSLRLSCAASGFTFSSYSMNWVRQAPGKGLEWVSSISSSSSYIYYADSVKGRFTISRDNAKNSLYLQMNSLRAEDTAVYYCARLGATATTDYAYGMDVWGQGTTVTVSS
VL: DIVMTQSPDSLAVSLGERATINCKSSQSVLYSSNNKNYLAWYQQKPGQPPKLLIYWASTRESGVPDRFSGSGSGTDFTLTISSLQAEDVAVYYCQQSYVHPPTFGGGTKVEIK
notes: human IgG1
With B9 the “Percent CD33 Surface Expression, DC % CD33” value (human CD33 [1]) was 73.9%, the “Percent CD33 Surface Expression, Monocyte % CD33” value (human CD33 [1]) was 79.2% and the binding result [2] was “no binding (tested: 100 nM)”. For the same binder, the Kd [3] was 3.4 nM, the “T cell MFI” value (human CD33 [4]) was 42.3 and the “Monocyte MFI” value (human CD33 [5]) was 918. The “Macrophage MFI” value (human CD33 [6]) was 537, the “DC MFI” value (human CD33 [7]) was 107 and the Kd [8] was 15.7 nM. For the same binder, the “Percent RBC Binding to CD33” value [9] was 98.5% and the “Percent RBC Binding to CD33” value [10] was 76.2%.

B10: C-95 (antibody, V domains shown)
VH: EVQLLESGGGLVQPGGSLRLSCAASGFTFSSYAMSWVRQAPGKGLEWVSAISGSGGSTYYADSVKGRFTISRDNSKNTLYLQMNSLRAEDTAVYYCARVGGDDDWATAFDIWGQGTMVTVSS
VL: DIVMTQSPDSLAVSLGERATINCKSSQSVLYSSNNKNYLAWYQQKPGQAPRLLIYGASSRATGIPDRFSGSGSGTDFTLTISRLEPEDFAVYYCQQDYSSPLTFGGGTKVEIK
notes: human IgG1
For B10, the “Percent CD33 Surface Expression, DC % CD33” value (human CD33 [1]) was 87.9%, the “Percent CD33 Surface Expression, Monocyte % CD33” value (human CD33 [1]) was 83% and the binding result [2] was “no binding (tested: 100 nM)”. For the same binder, the Kd [3] was 9.65 nM, the “T cell MFI” value (human CD33 [4]) was 144 and the “Monocyte MFI” value (human CD33 [5]) was 569. For the same binder, the “Macrophage MFI” value (human CD33 [6]) was 369, the “DC MFI” value (human CD33 [7]) was 48 and the Kd [8] was 71.5 nM. The “Percent RBC Binding to CD33” value [9] was 85% and the “Percent RBC Binding to CD33” value [10] was 92.3%.
